# According to patent US20260116983A1 (University of California, published 2026):
# T1: cynomolgus uPAR (recombinant) (cynomolgus monkey, UniProt Q9GK78 23-303, limits assumed)
# T1 construct: also called cyno uPAR; AF647-cyno uPAR
# T1 sequence (looked up): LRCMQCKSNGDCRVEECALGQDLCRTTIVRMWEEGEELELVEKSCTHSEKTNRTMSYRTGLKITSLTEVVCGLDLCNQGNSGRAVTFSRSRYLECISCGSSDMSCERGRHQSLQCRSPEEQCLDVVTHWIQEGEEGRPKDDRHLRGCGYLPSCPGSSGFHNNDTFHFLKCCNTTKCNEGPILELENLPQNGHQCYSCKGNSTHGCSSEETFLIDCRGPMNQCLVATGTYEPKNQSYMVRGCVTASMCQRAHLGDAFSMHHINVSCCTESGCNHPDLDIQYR
# B1: Antibody 3595 (antibody, human IgG1, V domains shown)
# VH: EVQLRQSGPELVKPGASVKISCKASGYTFTDYYMNWVKQSHEKSLEWIGNINPNNGGTDYNQKFKGKATLTVDKSSSTAYMELRSLTSEDSAVYYCARSYGSRFPYWGLGTLVTVSA
# VL: DIQMTQTTSSLSASLGDRVTISCRASQDITNYLSWYQQKPDGTVKLLIFYTSFLQSGVPLRFSGSGSGADYSLTISNLEQEDFATYFCQQGHTLPWTFGGGTKLEIK
# notes: Chimeric: mouse VH/VL linked to Herceptin (trastuzumab) human IgG1 / kappa constant regions
# B2: Antibody 11857 (antibody, human IgG1, V domains shown)
# VH: EVQLRQSGPELVKPGASVKISCKASGYTFTDYYMNWVKQSHEKSLEWIGNINPNNGGTDYNQKFKGKATLTVDKSSSTAYMELRSLTSEDSAVYYCARSYGSRFPYWGLGTLVTVSA
# VL: DIQMTQTTSSLSASLGDRVTISCRASQDITNYLSWYQQKPDGTVKLLIFYTAVLQSGFPLRFSGSGSGADYSLTISNLEQEDFATYFCQQGHTLPWTFGGGTKLEIK
# B3: Antibody 3159 (antibody, human IgG1, V domains shown)
# VH: QVTLKESGPGILQSSLTLSLTCSLSGFSLSTSGMGVSWIRQPSGKGLEWLAHIYWDDDKRYNPSLKTRLTISKDASRDQVFLKIISVDTADTGTYYCGRRVRNYFSGTSYWYFDVWGTGTTVTVSS
# VL: DVLMTQTPLSLSVSLGDQASISCRSSQNILHRTGNTYLEWYLQKPGQSPKLLIYKVSNRFSGVPDRFSGSGSGTDFTLKISRLEAEDLGVYYCFQGSYVPFTFGSGTKLEMK
# notes: as for B1
# B4: Antibody 8163 (antibody, human IgG1, V domains shown)
# VH: EVQLVESGGGLVQPGESLTLSCDSNEFDFPSHDMSWVRKTPEKRLELVAAIDSDGGLTYYSNSRERRFIISRDNTKNTLYLQMRSLRSEDTALYYCARRRASYWYFDVWGTGTTVTVSS
# VL: DILLTQSPAILPVSPGERVSFSCRASQNIGTSIHWYQQRTNGSPRLLIKYASESISGIPSRFSGSGSGTDFTLSINGVESEDIGDYYCQQSNSWPTFGGGTKLEIK
# notes: as for B1
# How the values were obtained:
# [1] = target: T2, human uPAR displayed on the surface of MDA-MB-231 cells (human, UniProt Q03405 23-305); assay: cell-based or functional assay
# T2 sequence (Q03405 23-305): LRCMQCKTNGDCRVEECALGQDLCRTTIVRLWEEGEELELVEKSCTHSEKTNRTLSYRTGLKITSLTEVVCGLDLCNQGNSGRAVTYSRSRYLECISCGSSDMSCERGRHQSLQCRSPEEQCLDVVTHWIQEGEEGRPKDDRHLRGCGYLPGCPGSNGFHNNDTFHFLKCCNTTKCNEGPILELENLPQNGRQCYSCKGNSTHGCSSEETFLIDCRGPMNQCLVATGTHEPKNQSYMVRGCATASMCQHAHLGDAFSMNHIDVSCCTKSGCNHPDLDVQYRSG
# [2] = target: T3, human uPAR (recombinant protein used in ELISA and BLI) (human, UniProt Q03405 23-305, limits assumed); assay: ELISA, plate-coated human uPAR
# T3 construct: Whole entry named; also called biotinylated human uPAR
# T3 sequence (Q03405 23-305 limits assumed): as the sequence (Q03405 23-305) above
# Procedure: (§1) To ensure the cross-reactivity of the 12 lead candidates was maintained with the Herceptin constant region, their binding to human and cyno uPAR was evaluated by ELISA (FIG. 3A).
# (§2) Nunc MaxiSorp™ flat-bottom 96-well plates were coated with human or cyno uPAR (3.19 μg/mL) at 4° C. overnight, and plates were washed with wash buffer and blocked with 5% non-fat dry milk. A standard log serial dilution of each antibody candidate was added to the uPAR-coated plates and incubated at 4° C. overnight. Plates were washed three times and incubated with 50 μL of HRP-conjugated goat anti-human (H+L) antibody (Biorad). After a two-hr incubation, plates were washed, and 100 μL of 1-Step™ Turbo TMB-ELISA Substrate Solution (Thermo Scientific) was added to each well. The reaction was quenched with 2M H₂SO₄ for 5 min at room temperature, and the optical density of each well was measured at 450 nm using a SpectraMax190 microplate reader.
# [3] = target: T2, human uPAR displayed on the surface of …; assay: flow cytometry (FACS) on MDA-MB-231 cells
# Description: Antibodies generated by immunizing animals with suPAR, which lacks the cell surface anchoring motif, can target protein regions that are not accessible for membrane-bound uPAR. […] Thus, FACS was applied to evaluate the cell-surface uPAR recognition by each antibody candidate under different concentrations of MDA-MB-231 cells, a triple-negative breast cancer cell line with high uPAR expression (FIG. 2).
# MDA-MB-231 cells were harvested with TrypleE and resuspended in FACS buffer (PBS+1% BSA) to 2×10⁶ cells/mL before being aliquoted to a 96-well plate (100 μL, 2×10⁵ cells/well). Cells were pelleted by centrifuging the microplate for 5 min at 400 RCF and resuspended in PBS containing serially diluted antibodies to a maximum concentration of 600 nM, followed by a 50 min incubation at 4° C. Cells were then washed three times with PBS and incubated with an AlexaFluor488-conjugated goat anti-human IgG for 50 min at 4° C. in the dark. Finally, cells were washed twice with FACS buffer and resuspended in 80 μL for FACS analysis in a Bio-rad S3e Cell Sorter.
# [4] = target: T1, cynomolgus uPAR (recombinant); assay: ELISA, plate-coated cyno uPAR
# Procedure: as §1, §2
# [5] = target: T3, human uPAR (recombinant protein used in …); assay: BLI (Octet HTX)
# Procedure: (§3) Kinetic constant ranges for Octet HTX were between 1 mM to 10 pM.
# [6] = target: T1, cynomolgus uPAR (recombinant); assay: BLI (Octet HTX)
# Procedure: as §3
# [7] = target: T2, human uPAR displayed on the surface of …; assay: flow cytometry on MDA-MB-231 cells
# [8] = target: T2, human uPAR displayed on the surface of …; assay: flow cytometry on MDA-MB-231 cells; repeated row of the table
# [9] = target: T3, human uPAR (recombinant protein used in …); assay: BLI (Octet HTX); repeated row of the table
# Procedure: as §3
# [10] = target: T1, cynomolgus uPAR (recombinant); assay: BLI (Octet HTX); repeated row of the table
# Procedure: as §3
# [11] = target: T2, human uPAR displayed on the surface of …; assay: cell-based or functional assay; remark: listed apart in the source
Binder,ADC Cytotoxicity EC50 [1] [nM],ADC Cytotoxicity Max % [1] [%],ADCC NK-92 EC50 [1] [nM],ADCC NK-92 Max % [1] [%],ADCC PBMCs EC50 [1] [nM],ADCC PBMCs Max % [1] [%],Adhesion blocking EC50 [1] [nM],EC50 [2] [nM],Cellular recognition Max % [3] [%],EC50 [3] [nM],EC50 [4] [nM],Kd [5] [nM],Kd [6] [nM],EC50 [7] [mg/L],EC50 [8] [mg/L],Kd [9] [nM],Kd [10] [nM],"ADCC PBMCs EC50, fold lower than 2G10 [11] [fold]"
B1,0.66,34.8,0.2,21.9,0.1,55.6,> 10000,0.05,2280,0.453,0.1,,,,,,,
B2,0.76,35.2,5.59,27.2,0.35,52,940,0.52,1940,2.07,0.18,6.37,8.48,0.545,0.545,6.37,8.48,
B3,0.75,32,0.887,28.2,0.11,47.4,1610,0.53,1830,0.916,0.27,< 0.01,934,0.188,,,,
B4,0.57,28.7,1.14,18.8,0.09,57.5,5400,0.41,2330,0.69,0.15,,,,,,,10 to 96
